Reference: patent publication US20040170619, “Gene regulation” (published 2004)

B1: TNFR1-4-2 target site (dsDNA)
DNA 1: GTCGGATTGGTGGGTTGGGGGCACAAGGCA
DNA 2: TGCCTTGTGCCCCCAACCCACCAATCCGAC
B2: EPO B-A target site (dsDNA)
DNA 1: TCTGGGGTGGGGGCTGGG
DNA 2: CCCAGCCCCCACCCCAGA

Tests used:
[1] = molecular target: TNFR1-4-2 six-zinc-finger DNA-binding domain (synthetic construct); assay: ELONA; high affinity and specificity; 50 uM ZnCl2, PBS pH 7.0, 10 nM site, salmon sperm competitor DNA, room temperature; conditions: may carry C-terminal NLS-KOX1-c-myc in the ELISA construct; label: biotin
Description: (§1) DNA binding reactions contain the appropriate zinc finger peptide, biotinylated binding site (10 nM) and 5 μg competitor DNA (sonicated salmon sperm DNA), in a total volume of 50 μl, which contained: 1×PBS (pH 7.0), 1.25×10⁻³ U high affinity anti-HA-Peroxidase antibody (Boehringer Mannheim), 50 μM ZnCl₂, 0.01 mg/ml BSA, and 0.5% Tween 20. Incubations are performed at room temperature for 40 minutes. Black streptavidin-coated wells are blocked with 4% marvel for 1 hour. Binding reactions are added to the streptavidin-coated wells and incubated for a further 40 minutes at room temperature. Wells are washed 5 times in 100 μl wash buffer (1×PBS (pH 7.0), 50 µM ZnCl₂, 0.01 mg/ml BSA, and 0.5% Tween 20), and finally 50 μl QuantaBlu peroxidase substrate solution (Pierce) is added to detect bound HA-tagged zinc finger peptide. ELISA signals are read in a SPECTRAmax GeminiXS spectrophotometer (Molecular Devices) and analysed using SOFTmax Pro 3.1.2 (Molecular Devices).

[2] = molecular target: EPOb-a-VP64 six-zinc-finger activator (synthetic construct); assay: ELONA; binds tightly and specifically; 50 uM ZnCl2, PBS pH 7.0, salmon sperm competitor DNA; values only in figure; conditions: tags: SV40 NLS, VP64, c-myc 9E10, C-terminal HA for ELISA; label: biotin
Description: as §1

Sequence of TNFR1-4-2 six-zinc-finger DNA-binding domain (synthetic construct) (chain, as listed by the source): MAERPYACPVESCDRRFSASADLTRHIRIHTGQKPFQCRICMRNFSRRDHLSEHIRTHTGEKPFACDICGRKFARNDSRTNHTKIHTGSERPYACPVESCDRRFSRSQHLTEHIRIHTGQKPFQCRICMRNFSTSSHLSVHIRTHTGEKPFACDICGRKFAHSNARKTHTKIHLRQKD

Binder | binding result [1] | binding result [2]
B1 | binds | –
B2 | – | binds
